{"source": "patent US20250171534A1", "about": "(D2M BIOTHERAPEUTICS, published 2025)", "binders": {"B1": {"name": "Anti-LILRB2 antibody 1E1(QE) (antibody, human IgG4 S228P, lambda, V domains shown)", "VH": "EVQLQQWGAGLLKPSETLSLTCAVYGGSFSGYYWSWIRQPPGKGLEWIGEINHSGSTNYNPSLKSRVTISVDTSKNQFSLKLSSVTAADTAVYYCARLPTRWVTTRYFDLWGRGTLVTVSS", "VL": "ESVLTQPPSVSGAPGQRVTISCTGSSSNIGAGYDVHWYQQLPGTAPKLLIYGNSNRPSGVPDRFSVSKSGASASLAITGLQAEDEADYYCQSFDNSLSAYVFGGGTQLTVLG"}, "B2": {"name": "D2M002-044 (antibody, human IgG1, V domains shown)", "VH": "EVQLQQSGAELVRPGALVKLSCKGSGFNIKDYYMHWVRQRPEQGLEWIGWIDPENGNTVYAPKFQGKASITSDTSSNIAYLQFSSLTSEDTAVYYCARSRDHGAMDYWGQGTSVTVSS", "VL": "DVQITQSPAIMSASPGEKVTLTCSASSSVSSSNLYWYQQKPGSSPKLWIYSTSNLASGVPARFSGSGFGTSYALTISSMEAEDAASYFCHQWSSYPYTFGGGTKLEIK", "notes": "Hit; also called clone #44"}}, "key": {"[1]": {"biological_target": "T1, LILRA2 expressed on 293T cells (UniProt Q8N149 24-483, limits assumed)", "T1 construct": "whole, on cells; GFP-tagged, transient", "T1 sequence (Q8N149 24-483 limits assumed)": "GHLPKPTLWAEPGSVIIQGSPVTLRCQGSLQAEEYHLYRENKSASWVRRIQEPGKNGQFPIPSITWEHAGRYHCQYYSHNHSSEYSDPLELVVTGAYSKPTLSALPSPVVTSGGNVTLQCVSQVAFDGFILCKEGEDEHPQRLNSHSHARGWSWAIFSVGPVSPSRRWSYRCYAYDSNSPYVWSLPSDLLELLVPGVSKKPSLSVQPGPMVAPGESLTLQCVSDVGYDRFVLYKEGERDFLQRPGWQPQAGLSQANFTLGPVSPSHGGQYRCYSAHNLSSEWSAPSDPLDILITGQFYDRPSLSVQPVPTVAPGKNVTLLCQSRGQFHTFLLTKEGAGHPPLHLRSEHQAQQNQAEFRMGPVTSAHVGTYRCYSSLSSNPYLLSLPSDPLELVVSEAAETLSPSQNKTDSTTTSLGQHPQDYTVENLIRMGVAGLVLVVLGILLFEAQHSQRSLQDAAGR", "assay": "flow cytometry on 293T cells transiently expressing LILRA2, APC anti-human Fc; gMFI as fold to IgG staining"}, "[2]": {"biological_target": "T2, LILRB5 expressed on 293T cells (UniProt O75023 24-590, limits assumed)", "T2 construct": "whole, on cells; GFP-tagged, transient", "T2 sequence (O75023 24-590 limits assumed)": "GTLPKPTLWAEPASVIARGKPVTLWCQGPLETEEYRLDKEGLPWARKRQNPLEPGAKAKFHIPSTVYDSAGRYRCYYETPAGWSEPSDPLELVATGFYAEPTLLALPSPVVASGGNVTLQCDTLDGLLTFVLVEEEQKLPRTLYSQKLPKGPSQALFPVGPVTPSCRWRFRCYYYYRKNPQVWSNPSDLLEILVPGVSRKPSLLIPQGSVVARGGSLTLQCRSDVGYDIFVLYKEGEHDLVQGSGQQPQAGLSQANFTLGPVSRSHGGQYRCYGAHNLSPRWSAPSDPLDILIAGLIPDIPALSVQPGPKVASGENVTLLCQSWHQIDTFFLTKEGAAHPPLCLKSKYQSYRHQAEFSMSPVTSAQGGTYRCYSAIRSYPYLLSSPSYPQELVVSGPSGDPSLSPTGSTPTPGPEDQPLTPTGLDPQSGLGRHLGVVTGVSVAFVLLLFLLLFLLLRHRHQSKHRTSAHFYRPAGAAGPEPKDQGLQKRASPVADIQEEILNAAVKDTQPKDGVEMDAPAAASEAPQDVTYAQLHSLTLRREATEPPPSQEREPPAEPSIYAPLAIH", "assay": "flow cytometry on 293T cells transiently expressing LILRB5, APC anti-human Fc; gMFI as fold to IgG staining"}, "[3]": {"biological_target": "T3, LILRA6 expressed on cells (human, UniProt Q6PI73 24-481)", "T3 construct": "whole, on cells; GFP-tagged; also called human LILRA6; CHO-LILRA6", "T3 sequence (Q6PI73 24-481)": "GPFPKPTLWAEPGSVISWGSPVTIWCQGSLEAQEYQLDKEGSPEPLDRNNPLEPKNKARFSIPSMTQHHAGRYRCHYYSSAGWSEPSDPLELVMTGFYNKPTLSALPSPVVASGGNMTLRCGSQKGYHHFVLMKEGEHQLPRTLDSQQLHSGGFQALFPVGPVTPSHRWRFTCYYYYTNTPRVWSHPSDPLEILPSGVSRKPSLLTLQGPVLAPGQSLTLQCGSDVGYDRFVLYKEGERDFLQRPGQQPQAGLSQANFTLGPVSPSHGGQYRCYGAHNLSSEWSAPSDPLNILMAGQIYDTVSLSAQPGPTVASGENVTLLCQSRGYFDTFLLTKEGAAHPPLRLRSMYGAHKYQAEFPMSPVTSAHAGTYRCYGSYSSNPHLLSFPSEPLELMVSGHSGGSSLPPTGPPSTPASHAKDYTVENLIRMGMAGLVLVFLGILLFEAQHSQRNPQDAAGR", "assay": "flow cytometry on 293T cells transiently expressing LILRA6, APC anti-human Fc; gMFI as fold to IgG staining"}, "[4]": {"biological_target": "T4, LILRB3 expressed on cells (human, UniProt O75022 24-631)", "T4 construct": "whole, on cells; Expressed with a GFP tag from the bought plasmid; also called human LILRB3; CHO-LILRB3", "assay": "flow cytometry on 293T cells transiently expressing LILRB3, APC anti-human Fc; gMFI as fold to IgG staining"}, "[5]": {"biological_target": "T5, human LILRB2 expressed on cells (human, UniProt Q8N423 22-597)", "T5 construct": "In 293T cells it was expressed from pCMV3-LILRB2-GFP; also called CHO-LILRB2; Jurkat-LILRB2", "T5 sequence (Q8N423 other isoform, or with tags, fused parts or gaps limits assumed)": "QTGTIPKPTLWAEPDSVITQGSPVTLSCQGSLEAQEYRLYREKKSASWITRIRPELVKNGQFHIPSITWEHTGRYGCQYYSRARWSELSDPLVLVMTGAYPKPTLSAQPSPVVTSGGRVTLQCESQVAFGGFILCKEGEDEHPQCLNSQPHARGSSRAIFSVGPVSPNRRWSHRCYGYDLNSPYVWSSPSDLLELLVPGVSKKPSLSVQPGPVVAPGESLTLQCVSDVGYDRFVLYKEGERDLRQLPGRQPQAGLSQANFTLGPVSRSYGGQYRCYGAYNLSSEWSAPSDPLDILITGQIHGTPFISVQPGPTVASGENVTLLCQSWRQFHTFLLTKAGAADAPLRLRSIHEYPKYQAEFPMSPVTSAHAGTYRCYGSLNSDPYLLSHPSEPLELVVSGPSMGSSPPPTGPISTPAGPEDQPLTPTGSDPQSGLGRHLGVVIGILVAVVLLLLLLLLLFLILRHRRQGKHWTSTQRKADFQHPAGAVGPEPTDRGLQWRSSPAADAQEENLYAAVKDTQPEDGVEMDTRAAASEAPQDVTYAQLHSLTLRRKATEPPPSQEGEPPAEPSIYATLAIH", "assay": "flow cytometry, CHO-LILRB2 cells"}, "[6]": {"biological_target": "T6, LILRA3 expressed on 293T cells (UniProt Q8N6C8 24-439, limits assumed)", "T6 construct": "whole, on cells; GFP-tagged, transient", "T6 sequence (Q8N6C8 24-439 limits assumed)": "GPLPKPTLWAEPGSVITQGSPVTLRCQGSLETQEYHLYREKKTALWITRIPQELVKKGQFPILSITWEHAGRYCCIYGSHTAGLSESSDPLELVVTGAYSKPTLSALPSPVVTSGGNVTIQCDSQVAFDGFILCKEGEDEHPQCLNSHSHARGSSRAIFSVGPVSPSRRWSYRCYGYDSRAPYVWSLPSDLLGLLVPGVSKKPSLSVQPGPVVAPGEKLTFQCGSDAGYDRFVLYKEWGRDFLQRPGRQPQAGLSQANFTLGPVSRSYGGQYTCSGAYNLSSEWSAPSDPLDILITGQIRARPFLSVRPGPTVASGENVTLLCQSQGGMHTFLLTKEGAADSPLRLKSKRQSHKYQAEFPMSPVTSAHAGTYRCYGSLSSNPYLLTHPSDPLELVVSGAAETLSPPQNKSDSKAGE", "assay": "flow cytometry on 293T cells transiently expressing LILRA3, APC anti-human Fc; gMFI as fold to IgG staining"}, "[7]": {"biological_target": "T7, LILRB2-ECD-HIS (SinoBiological Cat #: 14132-H02H) (human, UniProt Q8N423 22-460)", "T7 construct": "Bought protein; also called monomeric antigen LILRB2-ECD-HIS; not shown: His tag", "T7 sequence (Q8N423 other isoform, or with tags, fused parts or gaps H02H H02H)": "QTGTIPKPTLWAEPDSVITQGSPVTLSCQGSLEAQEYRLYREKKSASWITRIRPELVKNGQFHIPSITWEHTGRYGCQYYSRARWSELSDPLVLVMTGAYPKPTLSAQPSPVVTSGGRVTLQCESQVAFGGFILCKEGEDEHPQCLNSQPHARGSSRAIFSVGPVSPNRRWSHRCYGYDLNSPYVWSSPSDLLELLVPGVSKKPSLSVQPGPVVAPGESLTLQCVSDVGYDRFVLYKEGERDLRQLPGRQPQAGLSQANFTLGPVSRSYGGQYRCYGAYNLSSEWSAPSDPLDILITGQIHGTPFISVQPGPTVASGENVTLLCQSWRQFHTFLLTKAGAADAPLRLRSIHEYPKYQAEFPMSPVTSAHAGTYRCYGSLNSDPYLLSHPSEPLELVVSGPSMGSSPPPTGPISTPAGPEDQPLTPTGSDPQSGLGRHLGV", "assay": "BLI epitope binning (Gator), monomeric antigen"}, "[8]": {"biological_target": "T5, human LILRB2 expressed on cells", "assay": "flow cytometry, CHO-LILRB2 cells", "remark": "listed apart in the source"}, "[9]": {"biological_target": "T8, human LILRB1 expressed on cells (human, UniProt Q8NHL6 24-650)", "T8 construct": "In 293T cells it was expressed from pCMV3-LILRB1-GFP; also called CHO-LILRB1; Jurkat-LILRB1", "T8 sequence (Q8NHL6 other isoform, or with tags, fused parts or gaps limits assumed)": "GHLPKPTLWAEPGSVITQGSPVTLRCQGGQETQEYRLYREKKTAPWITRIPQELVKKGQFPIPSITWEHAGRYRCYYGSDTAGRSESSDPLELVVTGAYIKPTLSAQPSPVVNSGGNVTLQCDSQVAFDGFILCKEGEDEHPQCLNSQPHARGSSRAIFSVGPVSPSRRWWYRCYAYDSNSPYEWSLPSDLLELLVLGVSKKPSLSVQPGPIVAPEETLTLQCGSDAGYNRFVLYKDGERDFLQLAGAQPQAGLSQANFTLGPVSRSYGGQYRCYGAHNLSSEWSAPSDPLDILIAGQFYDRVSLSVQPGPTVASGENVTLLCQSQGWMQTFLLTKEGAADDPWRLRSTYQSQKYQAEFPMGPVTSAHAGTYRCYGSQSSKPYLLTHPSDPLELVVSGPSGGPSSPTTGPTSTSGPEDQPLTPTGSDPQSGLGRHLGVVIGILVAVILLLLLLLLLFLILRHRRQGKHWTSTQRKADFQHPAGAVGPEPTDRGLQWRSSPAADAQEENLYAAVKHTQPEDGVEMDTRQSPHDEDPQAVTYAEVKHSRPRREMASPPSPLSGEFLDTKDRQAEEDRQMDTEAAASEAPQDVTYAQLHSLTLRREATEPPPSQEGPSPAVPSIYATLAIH", "assay": "flow cytometry on 293T cells transiently expressing LILRB1, APC anti-human Fc; gMFI as fold to IgG staining"}, "[10]": {"biological_target": "T9, LILRB1-ECD-HIS (SinoBiological Cat #: 16014-H02H) (human, UniProt Q8NHL6 24-461)", "T9 construct": "Bought protein; also called monomeric antigen LILRB1-ECD-HIS; not shown: His tag", "T9 sequence (Q8NHL6 other isoform, or with tags, fused parts or gaps H02H H02H)": "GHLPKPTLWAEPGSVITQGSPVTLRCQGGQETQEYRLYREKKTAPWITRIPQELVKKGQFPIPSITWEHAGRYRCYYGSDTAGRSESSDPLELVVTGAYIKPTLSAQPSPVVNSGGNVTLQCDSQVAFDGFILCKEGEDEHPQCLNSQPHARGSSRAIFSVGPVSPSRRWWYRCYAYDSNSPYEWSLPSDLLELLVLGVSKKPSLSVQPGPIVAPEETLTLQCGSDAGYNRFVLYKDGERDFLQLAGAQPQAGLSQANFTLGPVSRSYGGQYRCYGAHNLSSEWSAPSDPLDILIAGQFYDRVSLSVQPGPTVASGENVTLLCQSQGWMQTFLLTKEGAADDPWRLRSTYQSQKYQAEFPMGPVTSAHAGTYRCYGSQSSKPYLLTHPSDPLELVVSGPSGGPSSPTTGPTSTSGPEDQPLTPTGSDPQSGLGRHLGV", "assay": "BLI epitope binning (Gator)"}, "[11]": {"biological_target": "T10, LILRA5 expressed on 293T cells (UniProt A6NI73 42-299, limits assumed)", "T10 construct": "whole, on cells; GFP-tagged, transient", "T10 sequence (A6NI73 42-299 limits assumed)": "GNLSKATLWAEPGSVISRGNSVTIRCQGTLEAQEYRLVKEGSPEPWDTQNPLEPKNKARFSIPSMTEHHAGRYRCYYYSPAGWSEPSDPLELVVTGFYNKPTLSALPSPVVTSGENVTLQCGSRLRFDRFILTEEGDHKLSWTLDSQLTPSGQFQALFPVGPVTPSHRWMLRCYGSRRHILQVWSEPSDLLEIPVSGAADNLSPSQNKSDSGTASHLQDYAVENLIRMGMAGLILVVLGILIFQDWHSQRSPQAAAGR", "assay": "flow cytometry on 293T cells transiently expressing LILRA5, antibody 5 µg/mL, APC anti-human Fc; gMFI as fold to IgG staining"}, "[12]": {"biological_target": "T9, LILRB1-ECD-HIS (SinoBiological Cat #: …)", "assay": "SPR (Carterra LSA), antibody captured, antigen injected;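 further: kd obtained from kinetic analysis of antibody binding to the antigen, with association and dissociation phases fitted in the instrument software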"}, "[13]": {"biological_target": "T7, LILRB2-ECD-HIS (SinoBiological Cat #: …)", "assay": "SPR (Carterra LSA), antibody captured, antigen injected"}, "[14]": {"biological_target": "T8, human LILRB1 expressed on cells", "assay": "flow cytometry, CHO-LILRB1 cells"}}}
{"binder": "B1", "values": [{"measurement": "binding result", "setting": "[1]", "value": "no binding (tested: 5 µg/mL)"}, {"measurement": "binding result", "setting": "[2]", "value": "no binding (tested: 5 µg/mL)"}, {"measurement": "binding result", "setting": "[3]", "value": "no binding (tested: 5 µg/mL)"}, {"measurement": "binding result", "setting": "[4]", "value": "no binding (tested: 5 µg/mL)"}, {"measurement": "EC50 (read off the curve)", "setting": "[5]", "value": "~0.04", "unit": "µg/mL"}, {"measurement": "binding result", "setting": "[6]", "value": "no binding (tested: 5 µg/mL)"}, {"measurement": "binding result", "setting": "[7]", "value": "binds"}, {"measurement": "EC50", "setting": "[8]", "value": 0.042, "unit": "µg/mL"}, {"measurement": "gMFI (max)", "setting": "[8]", "value": 11800}, {"measurement": "binding result", "setting": "[9]", "value": "no binding (tested: 5 µg/mL)"}, {"measurement": "binding result", "setting": "[10]", "value": "no binding"}, {"measurement": "binding result", "setting": "[11]", "value": "binds"}]}
{"binder": "B2", "values": [{"measurement": "EC50 (read off the curve)", "setting": "[5]", "value": "~0.06", "unit": "µg/mL"}, {"measurement": "EC50", "setting": "[8]", "value": 0.061, "unit": "µg/mL"}, {"measurement": "gMFI (max)", "setting": "[8]", "value": 22900}, {"measurement": "Kd", "setting": "[12]", "value": 1000, "unit": "nM"}, {"measurement": "Kd", "setting": "[13]", "value": 4.85, "unit": "nM"}, {"measurement": "binding result", "setting": "[14]", "value": "no binding (tested: 5 µg/mL)"}]}
